Source: the supplement of paper PMC5998384

How the values were obtained:
HeLa Kyoto [1] = assay: solubility in G1/S (NP-40 vs SDS abundance) (log2 ratio); higher = more soluble; settings: cell cycle stage: G1/S
HeLa Kyoto [2] = assay: melting temperature (median over replicates), in situ; higher = more thermally stable
HeLa Kyoto [3] = assay: solubility change mitosis vs G1/S (difference of NP-40 vs SDS log2 ratios) (log2 ratio difference); higher = more soluble in mitosis
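For melting temperature (median over replicates), in situ in this document: HeLa Kyoto cells synchronized by double thymidine or nocodazole block, proteins quantified by TMT10plex mass spectrometry, three independent biological replicates.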
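For solubility change mitosis vs G1/S (difference of NP-40 vs SDS log2 ratios) in this document: synchronized HeLa Kyoto cells (double thymidine block for G1/S, nocodazole release for mitosis), protein amounts in NP-40 versus SDS lysates quantified by mass spectrometry, three biological replicates.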
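For solubility in G1/S (NP-40 vs SDS abundance) in this document: HeLa Kyoto cells arrested at G1/S by double thymidine block, proteins quantified by TMT10plex mass spectrometry in mild NP-40 versus SDS extracts, three biological replicates.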

Row | Substance | solubility in G1/S (log2) (HeLa Kyoto [1]) | melting temperature (HeLa Kyoto [2]; cell cycle stage: G1/S) | melting temperature (HeLa Kyoto [2]; cell cycle stage: mitosis) | solubility change mitosis (log2) (HeLa Kyoto [3])
1 | MASSFLPAGAITGDSGGELSSGDDSGEVEFPHSPEIEETSCLAELFEKAAAHLQGLIQVASREQLLYLYARYKQVKVGNCNTPKPSFFDFEGKQKWEAWKALGDSSPSQAMQEYIAVVKKLDPGWNPQIPEKKGKEANTGFGGPVISSLYHEETIREEDKNIFDYCRENNIDHITKAIKSKNVDVNVKDEEGRALLHWACDRGHKELVTVLLQHRADINCQDNEGQTALHYASACEFLDIVELLLQSGADPTLRDQDGCLPEEVTGCKTVSLVLQRHTTGKA [ACBD6] | 0.393 | 48 °C | 49.2 °C | 0.0566
2 | NBEAL2 | -0.103 | 52 °C |  | -0.0719
3 | MLFKLLQRQTYTCLSHRYGLYVCFLGVVVTIVSAFQFGEVVLEWSRDQYHVLFDSYRDNIAGKSFQNRLCLPMPIDVVYTWVNGTDLELLKELQQVREQMEEEQKAMREILGKNTTEPTKKSEKQLECLLTHCIKVPMLVLDPALPANITLKDLPSLYPSFHSASDIFNVAKPKNPSTNVSVVVFDSTKDVEDAHSGLLKGNSRQTVWRGYLTTDKEVPGLVLMQDLAFLSGFPPTFKETNQLKTKLPENLSSKVKLLQLYSEASVALLKLNNPKDFQELNKQTKKNMTIDGKELTISPAYLLWDLSAISQSKQDEDISASRFEDNEELRYSLRSIERHAPWVRNIFIVTNGQIPSWLNLDNPRVTIVTHQDVFRNLSHLPTFSSPAIESHIHRIEGLSQKFIYLNDDVMFGKDVWPDDFYSHSKGQKVYLTWPVPNCAEGCPGSWIKDGYCDKACNNSACDWDGGDCSGNSGGSRYIAGGGGTGSIGVGQPWQFGGGINSVSYCNQGCANSWLADKFCDQACNVLSCGFDAGDCGQDHFHELYKVILLPNQTHYIIPKGECLPYFSFAEVAKRGVEGAYSDNPIIRHASIANKWKTIHLIMHSGMNATTIHFNLTFQNTNDEEFKMQITVEVDTREGPKLNSTAQKGYENLVSPITLLPEAEILFEDIPKEKRFPKFKRHDVNSTRRAQEEVKIPLVNISLLPKDAQLSLNTLDLQLEHGDITLKGYNLSKSALLRSFLMNSQHAKIKNQAIITDETNDSLVAPQEKQVHKSILPNSLGVSERLQRLTFPAVSVKVNGHDQGQNPPLDLETTARFRVETHTQKTIGGNVTKEKPPSLIVPLESQMTKEKKITGKEKENSRMEENAENHIGVTEVLLGRKLQHYTDSYLGFLPWEKKKYFQDLLDEEESLKTQLAYFTDSKNTGRQLKDTFADSLRYVNKILNSKFGFTSRKVPAHMPHMIDRIVMQELQDMFPEEFDKTSFHKVRHSEDMQFAFSYFYYLMSAVQPLNISQVFDEVDTDQSGVLSDREIRTLATRIHELPLSLQDLTGLEHMLINCSKMLPADITQLNNIPPTQESYYDPNLPPVTKSLVTNCKPVTDKIHKAYKDKNKYRFEIMGEEEIAFKMIRTNVSHVVGQLDDIRKNPRKFVCLNDNIDHNHKDAQTVKAVLRDFYESMFPIPSQFELPREYRNRFLHMHELQEWRAYRDKLKFWTHCVLATLIMFTIFSFFAEQLIALKRKIFPRRRIHKEASPNRIRV [GNPTAB] | 0.263 | 53.9 °C | 54.1 °C | -0.00222
4 | SRCAP | -0.24 | 48.8 °C | 50.3 °C | 0.0318
5 | MAAPEAWRARSCWFCEVAAATTMEATSREAAPAKSSASGPNAPPALFELCGRAVSAHMGVLESGVWALPGPILQSILPLLNIYYLERIEETALKKGLSTQAIWRRLWDELMKTRPSSLESVTCWRAKFMEAFFSHVLRGTIDVSSDRRLCDQRFSPLLHSSRHVRQLTICNMLQGATELVAEPNRRVLETLASSLHTLKFRHLLFSDVAAQQSLRQLLHQLIHHGAVSQVSLYSWPVPESALFILILTMSAGFWQPGPGGPPCRLCGEASRGRAPSRDEGSLLLGSRRPRRDAAERCAAALMASRRKSEAKQMPRAAPATRVTRRSTQESLTAGGTDLKRELHPPATSHEAPGTKRSPSAPAATSSASSSTSSYKRAPASSAPQPKPLKRFKRAAGKKGARTRQGPGAESEDLYDFVFIVAGEKEDGEEMEIGEVACGALDGSDPSCLGLPALEASQRFRSISTLELFTVPLSTEAALTLCHLLSSWVSLESLTLSYNGLGSNIFRLLDSLRALSGQAGCRLRALHLSDLFSPLPILELTRAIVRALPLLRVLSIRVDHPSQRDNPGVPGNAGPPSHIIGDEEIPENCLEQLEMGFPRGAQPAPLLCSVLKASGSLQQLSLDSATFASPQDFGLVLQTLKEYNLALKRLSFHDMNLADCQSEVLFLLQNLTLQEITFSFCRLFEKRPAQFLPEMVAAMKGNSTLKGLRLPGNRLGNAGLLALADVFSEDSSSSLCQLDISSNCIKPDGLLEFAKRLERWGRGAFGHLRLFQNWLDQDAVTAREAIRRLRATCHVVSDSWDSSQAFADYVSTM [LRRC41] | -0.31 | 47.9 °C | 49.5 °C | 0.0944
6 | MRRSAAPSQLQGNSFKKPKFIPPGRSNPGLNEEITKLNPDIKLFEGVAINNTFLPSQNDLRICSLNLPSEESTREINNRDNCSGKYCFEAPTLATLDPPHTVHSAPKEVAVSKEQEEKSDSLVKYFSVVWCKPSKKKHKKWEGDAVLIVKGKSFILKNLEGKDIGRGIGYKFKELEKIEEGQTLMICGKEIEVMGVISPDDFSSGRCFQLGGGSTAISHSSQVARKCFSNPFKSVCKPSSKENRQNDFQNCKPRHDPYTPNSLVMPRPDKNHQWVFNKNCFPLVDVVIDPYLVYHLRPHQKEGIIFLYECVMGMRMNGRCGAILADEMGLGKTLQCISLIWTLQCQGPYGGKPVIKKTLIVTPGSLVNNWKKEFQKWLGSERIKIFTVDQDHKVEEFIKSIFYSVLIISYEMLLRSLDQIKNIKFDLLICDEGHRLKNSAIKTTTALISLSCEKRIILTGTPIQNDLQEFFALIDFVNPGILGSLSSYRKIYEEPIILSREPSASEEEKELGERRAAELTCLTGLFILRRTQEIINKYLPPKIENVVFCRPGALQIELYRKLLNSQVVRFCLQGLLENSPHLICIGALKKLCNHPCLLFNSIKEKECSSTCDKNEEKSLYKGLLSVFPADYNPLLFTEKESGKLQVLSKLLAVIHELRPTEKVVLVSNYTQTLNILQEVCKRHGYAYTRLDGQTPISQRQQIVDGFNSQHSSFFIFLLSSKAGGVGLNLIGGSHLILYDIDWNPATDIQAMSRVWRDGQKYPVHIYRLLTTGTIEEKIYQRQISKQGLCGAVVDLTKTSEHIQFSVEELKNLFTLHESSDCVTHDLLDCECTGEEVHTGDSLEKFIVSRDCQLGPHHQKSNSLKPLSMSQLKQWKHFSGDHLNLTDPFLERITENVSFIFQNITTQATGT [RAD54B] | -0.106 | 46.5 °C | 48.1 °C | -0.0255
7 | MAAPSGTVSDSESSNSSSDAEELERCREAAMPAWGLEQRPHVAGKPRAGAANSQLSTSQPSLRHKVNEHEQDGNELQTTPEFRAHVAKKLGALLDSFITISEAAKEPAKAKVQKVALEDDGFRLFFTSVPGGREKEESPQPRRKRQPSSSSEDSDEEWRRCREAAVSASDILQESAIHSPGTVEKEAKKKRKLKKKAKKVASVDSAVAATTPTSMATVQKQKSGELNGDQVSLGTKKKKKAKKASETSPFPPAKSATAIPAN [C12ORF43] | -0.08 | 56.1 °C | 56.9 °C | 0.379
